Measured values: US20230115785, “ANALYTE DETECTION” (University of Leeds, published 2023)

Tests used:
Conditions in all cases: chain copies: 5 (pentamer, stated)
[1] = target: T1, C-reactive protein (CRP, pentamer) (Homo sapiens, UniProt P02741 P02741:19-224); test: SPR; amine-anchored extended aptamer; slower kinetics than aptamer 1; similar carrier sensing results (p217)
T1 sequence: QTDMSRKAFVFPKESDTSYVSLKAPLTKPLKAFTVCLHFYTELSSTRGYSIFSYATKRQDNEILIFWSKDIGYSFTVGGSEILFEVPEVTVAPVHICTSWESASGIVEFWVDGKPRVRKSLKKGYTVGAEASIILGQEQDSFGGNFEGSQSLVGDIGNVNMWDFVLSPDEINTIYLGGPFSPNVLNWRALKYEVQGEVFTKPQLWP
Procedure: (§1) Aptamer-protein binding studies were carried out via an ESPRIT SPR instrument from Metrohm Autolab B.V (Utrecht, The Netherlands). For this, the end-modified aptamers attached with an amine group were anchored onto the gold SPR surface functionalized with a self-assembled monolayer (SAM) of C11PEG6COOH via EDC (1-ethyl-3-(3-dimethylaminopropyl) carbodiimide) NHS (N-hydroxysuccinimide) coupling chemistry. The gold SPR surface from XanTec bioanalytics was cleaned by sonication twice in acetone for 10 minutes and then immersed in an ethanolic 1 mM SAM solution containing 5% acetic acid and allowed to stand at room temperature for 48 hours. Following the incubation, the surface was rinsed with 100% ethanol, quickly dried with nitrogen and was mounted on the SPR system. To attach the DNA aptamers to the gold surface, the COOH-terminated SAM surface was activated with 50 mM EDC and 200 mM NHS in 100 mM MES buffer at pH5.5 for around 15 min. The surface was washed with the MES buffer, followed by a 30-minute incubation with 5 μM of DNA aptamer in 10 mM sodium acetate buffer at pH5.5. Any remaining activated COOH sites were quenched by exposing the surface to 100 mM ethanolamine in water for around 10 min. […] The binding was measured as the change in resonance angle.

[2] = target: T1, C-reactive protein (CRP, pentamer); test: SPR; amine-anchored extended aptamer; 10 mM TrisAc, 10 mM MgAc, 2 mM CaCl2, 1 mM EDTA; faster kinetics than aptamer 2
Procedure: as §1

[3] = target: T1, C-reactive protein (CRP, pentamer); test: nanopipette translocation; carrier 9 nM, CRP 90 nM; no single peaks
Procedure: For the translocation experiments the nanopipettes with the working electrode were filled with the translocation buffer (0.1 M KCl with 10 mM TrisAc, 10 mM MgAc, 2 mM CaCl₂) and 1 mM EDTA) containing the DNA origami and analyte where applicable at a final concentration of 500 pM. The Mg is required to maintain the stability of the DNA origami, and the Ca to match the buffer conditions used to select the DNA aptamers employed as binding moieties. The grounded counter electrode was immersed in a 0.1 M KCl solution completing the circuit. […] Measurements were recorded using the Axopatch 700b amplifier, and the data were acquired at a rate of 100 kHz and 20 kHz low pass filtered. […]
To investigate the specificity of our sensing system, and in particular of the carriers to the CRP target, a random DNA sequence was selected to act as a non-specific aptamer and the translocation ion current was measured for carrier concentration of 9 nM and CRP concentration of 90 nM, i.e. the highest concentration reported in FIG. 6. A single distribution of peak amplitudes and dwell times with averages of 69±5 pA and […], respectively, were found, consistent with the values measured with unoccupied carriers.

B1: hCRP aptamer 2 (ssDNA)
DNA: CGAAGGGGATTCGAGGGGTGATTGCGTGCTCCATTTGGTGTTTTTTTTTTTTGCAAGGATAAAAATTT
modifications: 3'-NH2
[1]
  binding result: binds

B2: hCRP aptamer 1 (ssDNA)
DNA: AAGCCTTTATTTCAACGGCAGGAAGACAAACACGATGGGGGGGTATGATTTGATGTGGTTGTTGCATGATCGTGGTCTGTGGTGCTGT
modifications: 5'-NH2
[2]
  binding result: binds

B3: Nonspecific random aptamer (ssDNA)
DNA: CTGAACAAGAAAAATAGCAGAACTTACGAGCCAGGGGAAACAGTAAGGCCTAATTAGGTAAAGGAGTAAGTGCTCGAACGCTTCAGA
modifications: 5'-NH2
[3]
  binding result: no binding
